This passage reports median fluorescence fold over isotype control (fold over isotype), median fluorescence intensity, fold over isotype control (fold over isotype) and median fold over isotype (fold over isotype) results from patent US20210292393A1.

Conditions in all cases: remark: other sources report otherwise
Test [1] concerns the target SARS-CoV-2 full length spike protein, V483A mutant (SARS-CoV-2), P0DTC2.
Test [2] addresses SARS-CoV-2 full length spike protein, V483A mutant, expressed on CHO cells (SARS-CoV-2), P0DTC2.
The target of test [3] is SARS-CoV-2 full length spike protein, D614G mutant, expressed on CHO cells (SARS-CoV-2), P0DTC2.
Test [4] concerns the target SARS-CoV-2 full length spike protein, V367F mutant, expressed on CHO cells (SARS-CoV-2), P0DTC2.

Where “and” joins values, the source holds several entries; their conditions need not be identical. Identical values can stand only once.

B1: antibody 436 (antibody, V domains shown)
VH: QVQVVESGGGVVQPGRSLRLSCAASGFTFSSYAMHWVRQAPGKGLEWVAVISYDGNNEYYVDPVKGRFTISRDNSKNTLYLQMNSLRAEDTALYYCATSREAIVVGGILDYWGQGTLVTVSS
VL: DIQMTQSPSSLSASVGDRVTITCQASHDINNFLNWYQQKPGQAPKLLIYDASNLETGVPSRFSGSGSGTDFTFTISSLHPEDVATYYCQQYDGLPRYVTFGQGTKLEIR
For the molecule B1, the median fluorescence fold over isotype control (fold over isotype) in test [1] is 0.85.

B2: antibody 505 (antibody, V domains shown)
VH: EVQLVESGGGLVKPGGSLRLSCAASGFTFSSYSMNWVRQAPGKGLEWVSSISSSSSYIYYADSVKGRITISRDNAKNSLYLQMNSLRAEDTAVYYCAREYPNFRAEWLLSPYGMDVWGQGTTVTVSS
VL: QSALTQPASVSGSPGQSITISCTGTSSDVGSYNLVSWYQQHPGKAPKLMIYEVSKRPSGVSNRFSGSKSGNTASLTISGLQAEDEADYYCCSYAGSSTSVKVFGTGTKVTVL
In the case of B2, the median fluorescence intensity, fold over isotype control (fold over isotype) in test [2] was found to be 1.

B3: antibody 390 (antibody, V domains shown)
VH: EVQLVESGGGLIQPGGSLRLSCAASGFTVSSNYMSWVRQAPGKGLEWVSIIYSGGSTYYADSVKGRFTISRDNSKNTLYLQMNSLRAEDSAVYSCATTMVRGLIISYYYGMDVWGQGTTVTVSS
VL: QSALTQPASVSGSPGQSITISCTGTSSDVGGYNYVSWYQQHPGKAPKLMIYEVSNRPSGVSNRFSGSKSGNTASLTISGLQAEDEADYYCSSYTSSSTLVFGGGTKLTVL
Consider B3, for which the median fluorescence fold over isotype control (fold over isotype) in test [2] came to 1.36.

B4: antibody 493 (antibody, V domains shown)
VH: EVQLVESGGGLIQPGRSLRLSCAASGFTVSITYMSWVRQAPGKGLEWVSLIYSGGSSYYADSVKGRFTISRDNSKNTLYLQMNSLRAEDTAVYYCATTMVRGVIISYYYGMDVWGQGTTVTVSS
VL: QSALTQPASVSGSPGQSITISCTGTSSDVGGYNYVSWYQQHPGKAPKLMIYEVSNRPSGVSNRFSGSKSGNTASLTISGLQAEDEADYYCSSYTSSSTLVFGGGTKLTVL
As to B4, the median fluorescence intensity, fold over isotype control (fold over isotype) in test [3] was 1.72; in test [4], 4.82; in test [2], 4.63 and 2.26.

B5: antibody 507 (antibody, V domains shown)
VH: QVQLQESGPGLVKPSGTLSLTCAVSGGSISSSNWWSWVRQPPGKGLEWIGEIYHSGNTNYNPSLKSRVTISVDKSKNQFSLKLSSVTAADTAVYYCARREWLRLFDYWGQGTLVTVSS
VL: QSALTQPASVSGSPGQSITISCTGTSSDVGSYNLVSWYQQHPGKAPKLMIYEVSKRPSGVSNRFSGSKSGNTASLTISGLQAEDEADYYCCSYAGSSTYVFGTGTKVTVL
For the molecule B5, in test [2], the median fluorescence intensity, fold over isotype control (fold over isotype) is 1.12.

B6: antibody 413 (antibody, V domains shown)
VH: EVQLVESGGGLIQPGGSLRLSCAASGFTVSGNYMNWVRQAPGKGLEWVSVIYSGGSTYYADSVKGRFTISRANSKNTLYLQMNSLRAEDTAVYYCASTSLVRGLIILYYYGMDVWGQGTTVTVSS
VL: QSALTQPASVSGSPGQSITISCTGTSSDVGGYNYVSWYQQHPGKAPKLMIYEVSNRPSGVSNRFSGSKSGNTASLTISGLQAEDEADYYCSSYTSSSTLVFGGGTKLTVL
As to B6, in test [2], the median fluorescence fold over isotype control (fold over isotype) is 1.67.

B7: antibody 524 (antibody, V domains shown)
VH: QVQLVESGGGVVQPGRSLRLSCAASGFTFSSYAMHWVRQAPGKGLEWVAVISYDGSNKYYADSVKGRFTISRDNSKNTLYLQMNSLRAEDTAVYYCAKAGGGSYYRGFDYWGQGTLVTVSS
VL: QSVLTQPPSVSAAPGQKVTISCSGSNSNIGNNYVSWYQQLPGSAPKLLIYDNDKRPSGIPDRFSGSKSGTSATLGITGLQTGDEADYYCGAWDSSLTALVFGGGTKLTVL
On to B7, for which, in test [1], the median fold over isotype (fold over isotype) was 0.99 and 1.25.

B8: antibody 304 (antibody, V domains shown)
VH: EVQLLESGGGLVQPGGSLRLSCAASGFTFSTYAMSWVRQAPGKGLEWVSAISGSGGSTYYADSVKGRFTISRDNSKNTLYLQMNSLRAEDTAVYYCASGYSPDYWGQGTLVTVSS
VL: AIQMTQSPSSLSASVGDRVTITCRASQGIRNDLGWYQQKPGKAPKLLIYAASSLQSGVPSRFSGSGSGTDFTLTISSLQPEDFATYYCLQDYNYPRTFGQGTKVEIK
With B8, the median fluorescence intensity, fold over isotype control (fold over isotype) in test [1] came out at 0.66.

B9: antibody 374 (antibody, V domains shown)
VH: QVQLQESGPGLVKPSGTLSLTCAVSGGSISSSKWWSWVRQPPGKGLEWIGEIYHSGSTNYNPSLKSRVTISVDKSKNQFSLKLSSVTAADTAVYYCARRELGEGTFTYWGQGTLVTVSS
VL: not shown
With B9, in test [2], the median fluorescence fold over isotype control (fold over isotype) turned out to be 1.22.

B10: antibody 383 (antibody, V domains shown)
VH: EVQLVESGGGLVQPGGSLRLSCAASGFTFSSYDMHWVRQATGKGLEWVSTIGTAGDTYYPGSVKGRFTISRENAKNSLYLQMNSLRAGDTAVYYCARVAYSSSFVYWYFDLWGRGTLVTVSS
VL: DIQMTQSPSSLSASIGDRVTITCRASQSISSYLNWYQQKPGKAPNLLIYAASSLQSGVPSRFSGSGSGTDFTLTISSLQPEDFATYYCQQSYTTPLYTFGQGTKLEIK
As for B10, the median fluorescence fold over isotype control (fold over isotype) stood at 6.38 in test [3], 11.4 in test [4] and 1.8 in test [2].

B11: antibody 544 (antibody, V domains shown)
VH: QVQLQQWGAGLLKPSETLSLTCAVYGGSFSGYYWSWIRQPPGKGLEWIGEINHSGSTNYNPSLKSRVTISVDTSKNQFSLKLSSVTAADTAVYYCARGFKWFGELLFGAQGTLVTVSS
VL: not shown
On to B11, for which the median fold over isotype (fold over isotype) in test [1] is 1.58.

B12: antibody 472 (antibody, V domains shown)
VH: EVQLVESGGGLIQPGGSLRLSCAASGFTVSSNYMSWVRQAPGKGLEWVSVIYSGGTTHYADSVKGRFTISRDNSKNTLYLQMNSLRAEDTAVYYCANYGMDVWGQGTTVTVSS
VL: SYELTQPSSVSVSPGQTARITCSGDVLAKKYARWFQQKPGQAPVLVIYKDSERPSGIPERFSGSSSGTTVTLTISGAQVEDEADYYCYSAADKVFGGGTKLTVL
Take B12: the median fluorescence intensity, fold over isotype control (fold over isotype) in test [3] is 1.22; in test [4], 3.19; in test [2], 2.35 and 2.49.

B13: antibody 389 (antibody, V domains shown)
VH: QVQLVESGGGVVQPGRSLRLSCAASGFTFSSYAMHWVRQAPGKGLEWVAVISYDGSNKYYADSVKGRFTISRDNSKNTLYLQMNSLRAEDTAVYYCASQGRMYVRGVDYGVYWGQGTLVTVSS
VL: NFMLTQPHSVSESPGKTVTISCTGSSGSIASNYVQWYQQRPGSAPTTVIYEDNQRPSGVPDRFSGSIDSSSNSASLTISGLKTEDEADYYCQSYDSSKISHAVFGGGTQLTVL
With B13, in test [2], the median fluorescence fold over isotype control (fold over isotype) is 1.24.

B14: antibody 538 (antibody, V domains shown)
VH: QLQLQESGPGLVKPSETLSLTCTVSGGSISSSSYYWGWIRQPPGKGLEWIGSINYSGSTYYNPSLKSRVTISVDTSKNQFSLKLSSVTAADTAVYYCARYHDYGDDYWGQGTLVTVSS
VL: QLVLTQSPSASASLGASVKLTCTLSSGHSRYAIAWHQQQPEKGPRYLMKLNSDGSHSKGDGIPDRFSGSSSGAERYLTISSLQSEDEADYYCQTWGTGIQVFGGGTKLTVL
Turning to B14, the median fold over isotype (fold over isotype) in test [1] amounted to 1.48.

B15: antibody 382 (antibody, V domains shown)
VH: QVQLVESGGGVVQPGRSLRLSCAASGFTFSNYGMHWVRQAPGKGLEWMTVISFDGRNKYYADSVKGRFTISRDNSKNTLFLQMNSLTTEDTALYFCASGRRPRYSSGWSFDYWGQGTLVTVSS
VL: DIQMTQSPSSLSASVGDRVTITCQASQDIGNYLNWYQQKLGKAPNLLIYDASNLETGVPSRFSGSGSGTDFTFTINSLQPEDTATYYCQQYDDPSITFGQGTRLEIK
Regarding B15, the median fluorescence fold over isotype control (fold over isotype) in test [2] came out at 0.88.

B16: antibody 490 (antibody, V domains shown)
VH: QVQLQESGPGLVKPSGTLSLTCAVSGGSISSSNWWSWVRQPPGKGLEWIGELYHSGSTNYNPSLKSRVTISVDKSKNQFSLKLSSVTAADTAVYYCARVGPYYYDSSGYYNYFDYWGPGTLVTVSS
VL: EIVLTQSPATLSLSPGERATLSCRASQSVSSYLAWYQQKPGQAPRLLIYDASNRATGIPARFSGSGSGTDFTLTISSLEPEDFAVYYCQQRSNWPPGITFGQGTRLEIK
On to B16, for which the median fluorescence intensity, fold over isotype control (fold over isotype) in test [3] is 1.03; in test [4] it was 1.14; in test [2], 1.15 and 1.13 and 1.52.

B17: antibody 485 (antibody, V domains shown)
VH: QVQLQESGPGLVKPSGTLSLTCAVSGASISSSNWWSWVRQPPGKGLEWIGEIYHSGSTNYNPSLKSRVTISVDKSKNQFSLKLSSVTAADTAVYYCARRSYYGSGSYYPFDYWGQGTLVTVSS
VL: QSALTQPASVSGSPGQSITISCTGTSSDVGSYNLVSWYQQHPGKAPKLMIYEGRKRPSGVSNRFSGSKSGNTASLTISGLQAEDEADYYCCSYAGSSTYVFGTGTKVTVL
B17: the median fluorescence intensity, fold over isotype control (fold over isotype) in test [2] is 1.11.

B18: antibody 464 (antibody, V domains shown)
VH: QVQLVQSGAEVKKPGASVKVSCKVSGYTLTELSMHWVRQAPGKGLEWMGGFDPEDGETIYAQKFQGRVTMTEDTSTDTAYMELSSLRSEDTAVYYCATARAFGVANWFDPWGQGTLVTVSS
VL: QSVLTQPPSASGTPGQRVTISCSGSSSNIGSNYVYWYQQLPGTAPKLLIYRNNQRPSGVPDRFSGSKSGTSASLAISGLRSEDEADYYCAAWDDSLSGLYVFGTGTKVTVL
Consider B18, for which the median fluorescence intensity, fold over isotype control (fold over isotype) in test [3] was 0.86; in test [4], 1.04; in test [2] it was 1.04 and 1.

B19: antibody 551 (antibody, V domains shown)
VH: EVQLVESGGGLVQPGGSLRLSCAASGFTFSSYWMSWVRQAPGKGLEWVANINQDGSDKYYVDSVKGRFTISRDNAKNSLYLQMNSLRAEDTAVYYCARAPGWAAAPTFDYWGQGTLVTVSS
VL: QSALTQPRSVSGSPGQSVTISCTGTSSDVGGYNYVSWYQQHPGKAPKFMIYDVSKRPSGVPDRFSGSKSGNTASLTISGLQAEDEADYYCCSYAGSYTLVVFGGGTKLTVL
Regarding B19, in test [1], the median fold over isotype (fold over isotype) amounted to 1.7.
